Key:
Assay type in all cases: cell-based, human
LNCaP cells [1] = assay: MTT cell viability assay; settings: DEFB1 induction 24-72 h
Experimental: Reactions were performed three times in triplicate.
DU145, PC3 and LNCaP cells (1×10^5) were transfected with 0.5 μg of the PAX2 siRNA pool or control siRNA pool using Codebreaker transfection reagent according to the manufacturer's protocol (Promega). Next, cell suspensions were diluted and seeded onto a 96-well plate at 1-5×10^3 cells per well and allowed to grow for 2-, 4- or 6 days. After culture, cell viability was determined by measuring the conversion of 3-[4,5-dimethylthiazol-2yl]-2,5 diphenyl tetrazolium bromide, MTT (Promega), to a colored formazan product. Absorbance was read at 540 nm on a scanning multiwell spectrophotometer.
(§1) To examine the effects of hBD-1 on cell growth, metabolic 3-[4,5-dimethylthiazol-2yl]-2,5-diphenyl tetrazolium bromide (MTT) assay was performed. DU145, LNCaP, PC3 and PC3/AR+ cells co-transfected with pvgRXR plasmid and pIND/hBD-1 construct or control pvgRXR plasmid were seeded onto a 96-well plate at 1-5×10^3 cells per well. Twenty-four hours after seeding, fresh growth medium was added containing 10 μM Pon A daily to induce hBD-1 expression for 24, 48 and 72 h after which the MTT assay was performed according to the manufacturer's instructions (Promega). Reactions were performed three times in triplicate.

PC3/AR+ cells = assay: MTT cell viability assay; settings: PC3/AR+ versus PC3
Experimental: as §1

DU145 cells [2] = assay: Annexin V-FITC/PI flow cytometry
Experimental: (§2) The remaining attached cells were harvested by trypsinization and combined with the detached cells and PBS. The cells were then pelleted at 4° C. (500×g) for 5 min, washed twice in PBS, and resuspended in 100 ul of 1× Annexin binding buffer (0.1 M Hepes/NaOH at pH 7.4, 1.4 M NaCl, 25 mM CaCl2) containing 5 μl of Annexin V-FITC and 5 μl of PI. The cells were incubated at room temperature (RT) for 15 min. in the dark, then diluted with 400 μl of 1× Annexin binding buffer and analyzed by FACscan (Becton Dickinson, San Jose, Calif.). All reactions were performed three times.
(§3) PC3 and DU145 cells transfected with the hBD-1 expression system were grown in 60-mm dishes and induced for 12, 24, and 48 h with 10 μM Pon A. The cells were harvested and analyzed by flow cytometry as described in Example 1.

PC3 cells [3] = assay: Annexin V-FITC/PI flow cytometry
Experimental: as §2, §3

active caspases = assay: Pan-caspase detection (FAM-VAD-FMK, confocal)
Experimental: Detection of caspase activity in the prostate cancer cell lines was performed using APO LOGIX™ Carboxyfluorescin Caspase detection kit (Cell Technology, Mountain View, Calif.). Active caspases were detected through the use of a FAM-VAD-FMK inhibitor that irreversibly binds to active caspases. […] Next, 10 μl of a 30× working dilution of carboxyfluorescein labeled peptide fluoromethyl ketone (FAM-VAD-FMK) was added to 300 μl of media and added to each 35 mm dish. Cells were then incubated for 1 hour at 37° C. under 5% CO2. Then, the medium was aspirated and the cells were washed twice with 2 ml of a 1× Working dilution Wash Buffer. Cells were viewed under differential interference contrast (DIC) or under laser excitation at 488 nm. The fluorescent signal was analyzed using a confocal microscope (Zeiss LSM 5 Pascal) and a 63×DIC oil lens with a Vario 2 RGB Laser Scanning Module.

DU145 cells [4] = assay: AO/EtBr membrane integrity staining
Experimental: (§4) Acridine orange (AO)/ethidium bromide (EtBr) dual staining was performed to identify changes in cell membrane integrity, as well as apoptotic cells by staining the condensed chromatin. AO stains viable cells as well as early apoptotic cells, whereas EtBr stains late stage apoptotic cells that have lost […]. Briefly, cells were seeded into 2 chamber culture slides (BD Falcon, USA). […] In order to determine the effect of PAX2 inhibition on membrane integrity, separate culture slides containing DU145, PC3 and LNCaP were treated with PAX2 siRNA and incubated for 4 days. Following this, cells were washed once with PBS and stained with 2 ml of a mixture (1:1) of AO (Sigma, USA) and EtBr (Promega, USA) (5 ug/ml) solution for 5 min. Following staining, the cells were again washed with PBS. Fluorescence was viewed by a Zeiss LSM 5 Pascal Vario 2 Laser Scanning Confocal Microscope (Carl Zeiss Jena, Germany). The excitation color wheel contain BS505-530 (green) and LP560 (red) filter blocks which allowed for the separation of emitted green light from AO into the green channel and red light from EtBr into the red channel. […] The excitation was provided by a Kr/Ar mixed gas laser at wavelengths of […]. Slides were analyzed under 40× magnification and digital images were stored as uncompressed TIFF files and exported into Photoshop CS software (Adobe Systems, San Jose, Calif.) for image processing and hard copy presentation.
(§5) Acridine orange (AO)/ethidium bromide (EtBr) dual staining was performed to identify changes in cell membrane integrity, as well as apoptotic cells by staining the condensed chromatin. AO stains viable cells and early apoptotic cells, whereas EtBr stains late stage apoptotic cells that have compromised membranes. Briefly, PC3, DU145 and LNCaP cells were seeded into 2-chamber culture slides (BD Falcon). Cells transfected with empty plasmid or hBD-1 plasmid were induced for 24 or 48 h with media containing 10 μM Pon A, while control cells received fresh growth media at each time point. After induction, cells were washed once with PBS and stained with 2 ml of a mixture (1:1) of AO (Sigma, St. Louis, Mo.) and EtBr (Promega) (5 μg/ml) solution for 5 min and were again washed with PBS.
(§6) Fluorescence was viewed by a Zeiss LSM 5 Pascal Vario 2 Laser Scanning Confocal Microscope (Carl Zeiss). The excitation color wheel contains BS505-530 (green) and LP560 (red) filter blocks which allowed for the separation of emitted green light from AO into the green channel and red light from EtBr into the red channel. The laser power output and gain control settings within each individual experiment were identical between control and hBD-1 induced cells. The excitation was provided by a Kr/Ar mixed gas laser at wavelengths of […]. Slides were analyzed under 40× magnification and digital images were stored as uncompressed TIFF files and exported into Photoshop CS software (Adobe Systems) for image processing and hard copy presentation.

LNCaP cells [5] = assay: AO/EtBr membrane integrity staining; settings: 48 h hBD-1 induction
Experimental: as §4, §5, §6

PC3 cells [6] = assay: AO/EtBr membrane integrity staining
Experimental: as §4, §5, §6

DU145 cells [7] = assay: Phase contrast microscopy of cell growth; settings: DU145, 48 h DEFB1 induction
Experimental: (§7) Cell morphology was analyzed by phase contrast microscopy. […] The following day plasmid-containing cells were induced for a period of 48 h with media containing 10 μM Ponasterone A, while control cells received fresh media. The cells were then viewed under an inverted Zeiss IM 35 microscope (Carl Zeiss, Germany). Phase contrast pictures of a field of cells were obtained using the SPOT Insight Mosaic 4.2 camera (Diagnostic Instruments, USA). Cells were examined by phase contrast microscopy under 32× magnification and digital images were stored as uncompressed TIFF files and exported into Photoshop CS software (Adobe Systems, San Jose, Calif.) for image processing and hard copy presentation.
(§8) The effect of PAX2 knock-down on cell growth was analyzed by phase contrast microscopy as described in Example 1.

LNCaP cells [8] = assay: Phase contrast microscopy of cell growth; settings: 48 h DEFB1 induction
Experimental: as §7, §8

PC3 cells [9] = assay: Phase contrast microscopy of cell growth; settings: PC3, 48 h DEFB1 induction
Experimental: as §7, §8

B1: DEFB1: human β-defensin-1 (SEQ ID NO:63), expressed in cells from pIND/DEFB1 on Ponasterone A induction (protein, listed as Homo sapiens)
chain: MRTSYLLLFTLCLLLSEMASGGNFLTGLGHRSDHYNCVSSGGQCLYSACPIFTKIQGTCYRGKAKCCK
effect on cell viability (LNCaP cells [1]): no significant effect | hBD-1 cytotoxicity with ectopic AR expression (PC3/AR+ cells): no difference between PC3/AR+ and PC3 cells | number of apoptotic cells (DU145 cells [2]; DU145, 12 h DEFB1 induction): 12% | number of apoptotic cells (DU145 cells [2]; DU145, 24 h DEFB1 induction): 34% | number of apoptotic cells (DU145 cells [2]; DU145, 48 h DEFB1 induction): 59% | number of apoptotic cells (PC3 cells [3]; PC3, 12 h DEFB1 induction): 10% | number of apoptotic cells (PC3 cells [3]; PC3, 24 h DEFB1 induction): 20% | caspase activity (green staining) (active caspases; DU145, 24 h DEFB1 induction): green staining | caspase activity (green staining) (active caspases; LNCaP, 24 h DEFB1 induction): no green staining | caspase activity (green staining) (active caspases; PC3, 24 h DEFB1 induction): green staining | membrane integrity (AO/EtBr) (DU145 cells [4]; DU145, 24 h DEFB1 induction): accumulation of EtBr in the cytoplasm | membrane integrity (AO/EtBr) (DU145 cells [4]; DU145, 48 h DEFB1 induction): condensed nuclei and appeared yellow | membrane integrity (AO/EtBr) (LNCaP cells [5]): no observable alterations to membrane integrity | membrane integrity (AO/EtBr) (PC3 cells [6]; PC3, 24 h DEFB1 induction): accumulation of EtBr in the cytoplasm | membrane integrity (AO/EtBr) (PC3 cells [6]; PC3, 48 h DEFB1 induction): condensed nuclei and appeared yellow | cell number (DU145 cells [7]): significant reduction in cell number | cell proliferation (LNCaP cells [8]): no effect on cell proliferation | cell number (PC3 cells [9]): significant reduction in cell number

From patent US20140323349A1, “COMPOSITIONS AND METHODS FOR MONITORING AND DETECTING CANCEROUS CONDITIONS” (PHIGENIX, INC., priority 2011, published 2014)
